Assay results reported in patent US20240002497A1 (Merck Sharp & Dohme, published 2024).
Substitutions are numbered along the chain they refer to. In names and notes the source's numbering stands.

B1: F010302337 (VHH)
VHH: EVQLVESGGGVVQPGGSLRLSCAASHRQFIRDVFTGWYRRAPGKQRELVARIYEGGNTQYADSAKGRFTISRDNAKKTVYLQMNSLRPEDTALYYCLFSGTISTGREYRSGDYWGQGTLVTVSS
B2: F010302347 (VHH)
VHH: B1 VHH with Q28A, R40Q
B3: F010302355 (VHH)
VHH: B1 VHH with Q28A, A64V
B4: F010301314 (VHH)
VHH: EVQLVESGGGLVQAGGSLRLSCAASGRILRIGYMRWHRQGAGKQREFVARITDDSATDYADSVKGRFTISRDNAKNTVYLQMNNLNPEDTAVYYCEALVTASVRGGSIHSGTYWGRGTLVTVSS
notes: vs 387G05: D23A
B5: F010301372 (VHH)
VHH: B4 VHH with A23D, S107G
notes: vs 387G05: S100dG
B6: F010301440 (VHH)
VHH: B4 VHH with A23D, G111T
notes: vs 387G05: G100hT
B7: F010301558 (VHH)
VHH: B4 VHH with D53G, D58G
notes: vs 387G05: D23A, D53G, D58G
B8: F010301445 (VHH)
VHH: B4 VHH with A23D, S107Y
notes: vs 387G05: S100dY
B9: F010301344 (VHH)
VHH: B4 VHH with A23D, D54G
notes: vs 387G05: D54G
B10: F010301367 (VHH)
VHH: B4 VHH with A23D, D53G
notes: vs 387G05: D53G
B11: F010301350 (VHH)
VHH: B4 VHH with A23D, D58V
notes: vs 387G05: D58V
B12: F010301556 (VHH)
VHH: B4 VHH with D53G, D54G, D58G
notes: also called F0103387G05(D23A, D53G, D54G, D58G)
B13: F010301425 (VHH)
VHH: B4 VHH with A23D, G105V
notes: vs 387G05: G100bV
B14: F010301346 (VHH)
VHH: B4 VHH with A23D, D58G
notes: vs 387G05: D58G
B15: F010301418 (VHH)
VHH: B4 VHH with A23D, Y113W
notes: vs 387G05: Y102W
B16: F010301416 (VHH)
VHH: B4 VHH with A23D, T112Q
notes: vs 387G05: T101Q
B17: F010301557 (VHH)
VHH: B4 VHH with D53G, D54G
notes: vs 387G05: D23A, D53G, D54G
B18: F010301868 (VHH)
VHH: EVQLVESGGGVVQPGGSLRLSCATTSRAFIRDVFTGWYRRVPGKERELVARIYNGGNTNYADFAKGRFTISRDNAKKMVYLQMNSLRPEDTALYYCLFSGTINTGREYRSGDYWGQGTLVTVSS
notes: also called F0103464B09(L11V, S68T, T79Y, R81Q, S82aN, N82bS, K83R, G88A, V89L)
B19: F010302339 (VHH)
VHH: B1 VHH with Q28A
B20: F010301874 (VHH)
VHH: B18 VHH with V41A
notes: also called F0103464B09(L11V, V40A, S68T, T79Y, R81Q, S82aN, N82bS, K83R, G88A, V89L)
B21: F010301872 (VHH)
VHH: B18 VHH with T25S
notes: also called F0103464B09(L11V, T25S, S68T, T79Y, R81Q, S82aN, N82bS, K83R, G88A, V89L)
B22: F010301932 (VHH)
VHH: B18 VHH with T69S, Y80T, Q82R, N84S, S85N, A92G
notes: also called F0103464B09(L11V, K83R, V89L)
B23: F010301938 (VHH)
VHH: B18 VHH with T69S, Y80T, Q82R, N84S, A92G
notes: also called F0103464B09(L11V, N82bS, K83R, V89L)
B24: F010301934 (VHH)
VHH: B18 VHH with T69S, M78T, Y80T, Q82R, N84S, S85N, A92G
notes: also called F0103464B09(L11V, M77T, K83R, V89L)
B25: F010301877 (VHH)
VHH: B18 VHH with K77N
notes: also called F0103464B09(L11V, S68T, K76N, T79Y, R81Q, S82aN, N82bS, K83R, G88A, V89L)
B26: F010301893 (VHH)
VHH: B18 VHH with E45Q
notes: also called F0103464B09(L11V, E44Q, S68T, T79Y, R81Q, S82aN, N82bS, K83R, G88A, V89L)
B27: F010301936 (VHH)
VHH: B18 VHH with T69S, Y80T, N84S, S85N, A92G
notes: also called F0103464B09(L11V, R81Q, K83R, V89L)
B28: F010301869 (VHH)
VHH: B18 VHH with M78T
notes: also called F0103464B09(L11V, S68T, M77T, T79Y, R81Q, S82aN, N82bS, K83R, G88A, V89L)
B29: F010301876 (VHH)
VHH: B18 VHH with A64V
notes: also called F0103464B09(L11V, A63V, S68T, T79Y, R81Q, S82aN, N82bS, K83R, G88A, V89L)
B30: F010301935 (VHH)
VHH: B18 VHH with T69S, Q82R, N84S, S85N, A92G
notes: also called F0103464B09(L11V, T79Y, K83R, V89L)
B31: F010301871 (VHH)
VHH: B18 VHH with T24A
notes: also called F0103464B09(L11V, T24A, S68T, T79Y, R81Q, S82aN, N82bS, K83R, AG88, V89L)
B32: F010301873 (VHH)
VHH: B18 VHH with R40Q
notes: also called F0103464B09(L11V, R39Q, S68T, T79Y, R81Q, S82aN, N82bS, K83R, G88A, V89L)
B33: F010301939 (VHH)
VHH: B18 VHH with T69S, Y80T, Q82R, N84S, S85N
notes: also called F0103464B09(L11V, K83R, G88A, V89L)
B34: F010301875 (VHH)
VHH: B18 VHH with F63S
notes: also called F0103464B09(L11V, F62S, S68T, T79Y, R81Q, S82aN, N82bS, K83R, G88A, V89L)
B35: F010301937 (VHH)
VHH: B18 VHH with T69S, Y80T, Q82R, S85N, A92G
notes: also called F0103464B09(L11V, S82aN, K83R, V89L)
B36: F010301933 (VHH)
VHH: B18 VHH with Y80T, Q82R, N84S, S85N, A92G
notes: also called F0103464B09(L11V, S68T, K83R, V89L)

What was measured:
huNav1.7α + β1-β2-β3 = target: T1, huNav1.7α + β1-β2-β3 (human, UniProt Q15858 1-1988; A5A6L6 19-218; O60939 30-215; Q2KI11 23-215); experiment: binding FACS, CHO FlpIn
T1 construct: also called huNav1.7-beta1-beta2-beta3; huNav1.7-β1-β2-β3
How it was run: (§1)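 FLAG3-tagged ISVD, 30 min, 4° C, FACS buffer (PBS/10% FBS/NaN₃); 1×10^5 cells/well; detection murine anti-Flag; PI 1 μg/mL live gate; washes between steps.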

rhNav1.7α + β1-β2-β3 = target: T2, rhNav1.7α + β1-β2-β3 (rhesus monkey); experiment: binding FACS, CHO FlpIn
T2 construct: also called rhNav1.7-beta1-beta2-beta3; rhNav1.7-β1-β2-β3
How it was run: as §1

muNav1.7α = target: T3, muNav1.7α (murine, UniProt Q62205 1-1984); experiment: binding FACS, HEK JmpIn
T3 construct: HEK JmpIn cells; also called murine Nav1.7α
Description: (§2) Binding of the ISVDs to cell-expressed Nav1.7α was detected via murine anti-Flag (Sigma, catalog #F1804). Briefly, cells were resuspended in FACS buffer (PBS, 10% FBS, NaN₃) and transferred to a 96-well V-bottom plate at 1×10^5 cells/well. Purified FLAG3-tagged ISVD was diluted in FACS buffer and added to the cells for 30 minutes at 4° C. […] Prior to the read-out, the samples were resuspended in 1 μg/mL propidium iodide (Sigma, catalog #P4170) to exclude dead cells. Between each step, the cells were centrifuged for 5 minutes at 200 grams and washed with 100 μL/well FACS buffer.

huNav1.7α = target: T4, huNav1.7α (human, UniProt Q15858 1-1988); experiment: binding FACS, HEKa cells
T4 construct: HEK cells expressing the α subunit alone; also called HEKa; HEK huNav1.7α
Description: as §2

huNav1.7α+β1 = target: T5, huNav1.7α+β1 (human, UniProt Q15858 1-1988; Q07699 19-218); experiment: binding FACS, HEKa/β1 cells
T5 construct: also called huNav1.7-beta1; HEKa/β1
Description: as §2

huNav1.7α+β1-β2-β3 = target: T6, huNav1.7α+β1-β2-β3 (human, UniProt Q15858 1-1988; Q07699 19-218; O60939 30-215; Q9NY72 23-215); experiment: binding FACS, CHO FlpIn cells
T6 construct: 5N11S variant; also called huNav1.7-beta1-beta2-beta3; huNav1.7α+Navβ1-Navβ2-Navβ3
How it was run: as §1

Bmax (huNav1.7α + β1-β2-β3) [%]	EC50 (huNav1.7α + β1-β2-β3) [nM]	Bmax (rhNav1.7α + β1-β2-β3) [%]	EC50 (rhNav1.7α + β1-β2-β3) [nM]	Bmax (muNav1.7α) [%]	EC50 (muNav1.7α) [nM]	EC50 (huNav1.7α) [nM]	EC50 (huNav1.7α+β1) [nM]	EC50 (huNav1.7α+β1-β2-β3) [nM]	binding result (huNav1.7α+β1-β2-β3)	Binder
100	3.9	100	6.8	74						B1
100	4.6	100	9.6	48	14					B2
100	3.5	97	6.8	30	21					B3
						1.9	1.8	3.5		B4
						2.5	2.3	4.5		B5
								5.7		B6
						1.5	0.93	1.8		B7
						2.3	2	4.6		B8
						1.3	2.1	4.2		B9
						2.2	1.9	4.2		B10
						1.6	1.7	3.5		B11
						1.8	1.4	2.3		B12
								15		B13
						1.5	1.6	3.4		B14
								4.9		B15
									no binding	B16
						2	2.1	3.8		B17
98	6.3		62		11					B18

Bmax (huNav1.7α + β1-β2-β3) [%]	EC50 (huNav1.7α + β1-β2-β3) [nM]	Bmax (rhNav1.7α + β1-β2-β3) [%]	EC50 (rhNav1.7α + β1-β2-β3) [nM]	Bmax (muNav1.7α) [%]	EC50 (muNav1.7α) [nM]	EC50 (huNav1.7α) [nM]	EC50 (huNav1.7α+β1) [nM]	EC50 (huNav1.7α+β1-β2-β3) [nM]	binding result (huNav1.7α+β1-β2-β3)	Binder
100	4.3	100	6.8	61	8.7					B19
100	6.5		55		18					B20
100	6.8		57		21					B21
94	4.3		17		4.8					B22
97	4.8		20		4.7					B23
96	4.3		21		4.5					B24
100	13		96		39					B25
100	5.8		21		3.6					B26
95	4.4		26		4.8					B27
100	7.6		96		17					B28
100	6.3		110		23					B29
94	3.8		27		5.5					B30
100	5.8		37		24					B31
100	9		110		42					B32
96	5.1		22		6.3					B33
100	6.4		52		14					B34
95	4.3		20		4.8					B35
94	4.4		21		5.3					B36
